Series [1] addresses T1, MsCS (citrate synthase from Metallosphaera sedula) (Metallosphaera sedula, UniProt A4YGX6).
T1 construct: gene Msed_1522; C-terminal 6xHis tag (pET-30a, NdeI/XhoI), E. coli BL21(DE3)-T1R; homodimer about 85 kDa; modelled domains Met1-Arg370; His214, His253, Asp307 catalytic
Kind of series: DTNB absorbance at […] nm, inhibition kinetics. The series is classed as biochemical.

Series [2] addresses Citrate synthase from Metallosphaera sedula (Metallosphaera sedula). Put plainly: SEC; HiPrep 26/60 Sephacryl S-300 HR column, buffer A (40 mM Tris-HCl, pH 8.0), 277 K; eluted at approximately 85 kDa. (In general: Size exclusion chromatography separates by hydrodynamic size, large species first.)
Substrate in series [3]: CC(=O)SCCNC(=O)CCNC(=O)[C@H](O)C(C)(C)COP(=O)(O)OP(=O)(O)OC[C@H]1O[C@@H](n2cnc3c(N)ncnc32)[C@H](O)[C@@H]1OP(=O)(O)O
Kind of series: purified protein. The series is classed as biochemical, Metallosphaera sedula. The note with it: 100 mM potassium phosphate pH 8.0, 150 mM NaCl, 50 uM DTNB, 298 K, oxaloacetate concentration not stated, no inhibitor, 25.0 °C.

Substrate in series [4]: O=C(O)CC(=O)C(=O)O
Kind of series: purified protein. Format: biochemical, Metallosphaera sedula. The note with it: 0.5 mM acetyl-CoA, 100 mM potassium phosphate pH 8.0, 150 mM NaCl, 50 uM DTNB, 298 K, no inhibitor, 25.0 °C.

Here are results for 4 molecules from publication PMC6386500 (PLoS ONE, 2019).

With `Nc1ncnc2c1ncn2[C@@H]1O[C@H](COP(=O)(O)OP(=O)(O)OP(=O)(O)O)[C@@H](O)[C@H]1O` [ATP], the affinity in series [1], expressed as Ki, was 4.34 mM.
On the same count and under the same terms, the result for `NC(=O)C1=CN([C@@H]2O[C@H](COP(=O)(O)OP(=O)(O)OC[C@H]3O[C@@H](n4cnc5c(N)ncnc54)[C@H](O)[C@@H]3O)[C@@H](O)[C@H]2O)C=CC1` [NADH] reads 4.41 mM.
As to “Citrate synthase from Metallosphaera sedula (enzyme)”, the stoichiometry N (in general, the number of molecules, sites or subunits per partner or assembly) in series [2] was 2.

B1: MsCS (citrate synthase from Metallosphaera sedula) (Metallosphaera sedula DSM 5348) (protein)
chain: MELRKGLEDIAIKETSITYIDGELGRLYYRGYSIFDLASFSNFEEVAYLLWYGKLPTRHELDDFKSRLAEERSISEDISTFVKRTAKFGNPMDILRTTVSMMGLEDRSEGDLIGKAIKMTAKIPTIISLIQRTRRNQEFVEPDPSLSHSENFLYMIRGERPSPSDTRVLDVSLMLHMDHEMNASTMACLVVASTLSDIYSSVVAGISALKGPLHGGANSEALKQFMEIETPDNVEKYVMNKLSSGQRLMGFGHRIYKTMDPRAKILKEYANQLSKNEEIKRLFEIANRVEEIGIKILGKRGIYPNVDFYSGLVFYAMGFDPDLFPTIFASARVIGWTAHVDEYLKDNKLIRPKAIYVGDLGKRYVPIEER
notes: C-terminal 6xHis tag (pET-30a, NdeI/XhoI), E. coli BL21(DE3)-T1R; homodimer about 85 kDa; modelled domains Met1-Arg370; His214, His253, Asp307 catalytic
As to B1, in “purified protein [3]”, the Km (usually the concentration of substrate that gives half-maximal velocity) was found to be 16.5 µM; the kcat (commonly the maximal rate divided by the concentration of active sites) came to 8.56 s⁻¹; the kcat/Km – broadly, the second-order rate constant that governs catalysis at low substrate concentration – stood at 519000 M⁻¹ s⁻¹. Also, in the series “purified protein [4]”, the Km stood at 41.4 µM and the catalytic constant (kcat) was 7.62 s⁻¹.
